Laboratory results: the RNAGym collection of RNA variant scans (doi:10.7554/elife.90254)

B1: LINE1-full (parent)
chain: UACGUAGGUGGUUUUCCCCUGAUAGUGCUAAGGGGGCCUGGAAGUUUGGACUGGGCAGAGCUCAACACAGCGUGGCAAAGUGGCUGUGGCUAGACUGCCUCUCUGGAUUCCUCGUCACUCAGCAGGGCAUCUCUGAGAGAAAUGCC

Variants of: B1
Experiment: self-cleavage, relative activity (ratio to wild type); higher = more cleavage; in vitro, sequencing; the parent is a self-cleaving ribozyme

Variant	self-cleavage
UACGUAGGUGGUCUUCCCCUGAUAGUGCUAAGGGGGCCUGGAAGUUUGGACUGGGCAGAGCUCAACACAGCGUGGCAAAGUGGCUGUGGCUAGACUGCCUCUCUGGAUUCCUCGUCACUCAGCAGGGCAUCUCUGAGAGAUAUGCC [U13C A141U]	1.57
UACGUAGGUGGUUUUCCCCUGAUAGUGCUAAGGGGGCCUGGAAGUUUGGACUGGGCAGAGCUCAACACAGCGCGGCAAAGUGGCUGUGGCUAGACUGCCUCUCUGGAUUCCUCGUCACUCAGCAGGGCAUCCCUGAGAGAAAUGCC [U73C U132C]	2.09
UACGUAGGUGGUUCUCCCCUGAUAGUGCUAAGGGGGCCUGGAAGUUUGGACUGGGCAGAGCUCAACACAGCGUGGCAAAGUGGCUGUGGCUAGACCGCCUCUCUGGAUUCCUCGUCACUCAGCAGGGCAUCUCUGAGAGAAAUGCC [U14C U96C]	0.18
UACGUAGGUGGUUUUCCCCUGAUAGUGCUAAGGGGGCCUGGAAGUUUGGACUGGGCAGAGCUCAACACAGCGUGGCAAAGUGGCUGUAGCUAGACUGCCUCUCUGGAUUUCUCGUCACUCAGCAGGGCAUCUCUGAGAGAAAUGCC [G88A C110U]	0.04
UACGUAGGUGGCUUUCCCCUGAUAGUGCUAAGGGGGCCUGGAAGUUUGGACUGGGCAGAGCUCAACACAGCGUGGCAAAGUGGCUGUGGCUAGACUGCGUCUCUGGAUUCCUCGUCACUCAGCAGGGCAUCUCUGAGAGAAAUGCC [U12C C99G]	0.63
UACGUAGGUGGUUUUCCCCUGAUAGUGCUAAGGGGGCCUGGAAGUUUGGACUGUGCAGAGCUCAACACAGCGUGGCAAAGUGGCUGUGGCUAGACUGCCUCUCUGGAUUCCUCGACACUCAGCAGGGCAUCUCUGAGAGAAAUGCC [G54U U115A]	0.74
UACGUAGGUGGUUUUCCCCUGACAGUGCUAAGGGGGCCUGGAAGUUUGGACUGGGCAGAGCUCAACACAGCGUGGCAAAGUGGCUGUGGCUAGACUGCCUCUCUGGAUUCCUCGUCACUCAGCAGGGCAUUUCUGAGAGAAAUGCC [U23C C131U]	1.84
UACGUAGGUGGUUUUCCCCUGAUAGUGCUAAGGGGGCCUGGAAGUUUGGACUGGGCAGGGCUCAACACAGCGUGGCAAAGUGGCUGUGGCUAGACUGCCUCUCUGGAUUCCACGUCACUCAGCAGGGCAUCUCUGAGAGAAAUGCC [A59G U112A]	0.09
UGCGUAGGUGGUUUUCCCCUGAUAGUGCUAAGGGGGCCUGGAAGUUUGGACUGGGCAGAGCUCAACACAGCGUGGCAAAGUGGCUGUGGCUAGACUGCCUCUCUGGAUUCCUCGUCACUCAGCAGGGCAUCUCCGAGAGAAAUGCC [A2G U134C]	1.35
UACGUAGGUGGUUUUCCCCUGAUAGUGCUAAGGGGGCCUGGAAGUUUGGACUGGGCAGAGUUCAACACAGCGUGGCAAAGUGGCUGUGGCUAGACUGCCUCUCUGGAUUCCUCGUCACUCAGCAGGGCAUCUCUGAGAGAAAUGCC [C61U]	0.04
UACGUAGGUGGUUUUCCCCUGAUAGUGCUAAGGGGGCCUGGAGGUAUGGACUGGGCAGAGCUCAACACAGCGUGGCAAAGUGGCUGUGGCUAGACUGCCUCUCUGGAUUCCUCGUCACUCAGCAGGGCAUCUCUGAGAGAAAUGCC [A43G U46A]	1.17
CACGUAGGUGGUUUUCCCCUGAUAGUGCUAAGGGGGCCUGGAAGUUUGGACUGGGCGGAGCUCAACACAGCGUGGCAAAGUGGCUGUGGCUAGACUGCCUCUCUGGAUUCCUCGUCACUCAGCAGGGCAUCUCUGAGAGAAAUGCC [U1C A57G]	0.56
UACGUAGGUGGUUUUCCCCUGGUAGUGCUAAGGGGGCCUGGAAGUUUGGACUGGGCAGAGCUCAACACAGCGUGGCAAAGUGGCUGUGGCUAGACUGCCUCUCAGGAUUCCUCGUCACUCAGCAGGGCAUCUCUGAGAGAAAUGCC [A22G U104A]	1.38
UACGUAGGUGGUUUUCCCCUGAUAGUGCUAAGGGGGCCUGGAAGUUAGGACUGGGCAGAGCUCAACACAGCGUGGCAAAGUGGCUGUGGCUAGACUGCCUCUCUGGAUUCCUCGUCACUCUGCAGGGCAUCUCUGAGAGAAAUGCC [U47A A121U]	1.04
UACGUAGGUGGUUUUCCCCUGAUAGUGCUAAGGGAGCCUGGAAGUUUGGACUGGGCAGAGCCCAACACAGCGUGGCAAAGUGGCUGUGGCUAGACUGCCUCUCUGGAUUCCUCGUCACUCAGCAGGGCAUCUCUGAGAGAAAUGCC [G35A U62C]	0.03
UACGUAGGUGGUUUUCCCCUGAUAGUGCUAAGGGGGCCUGGAAGUUUGGACUGGGCAGAGCUCAACACAGCGUGGCAAAGUGGCUGUGGCUAGACCGCCUCUCUGGAUGCCUCGUCACUCAGCAGGGCAUCUCUGAGAGAAAUGCC [U96C U109G]	0.16
UACGUAGGUGGUUUUCCCCUGAUAGUGCUAAGGGGGCCUGGAAGUUUGGACUGGGCAGAGCUCAACACAGCGUGGCAGAGUGGCUGUGGCUAGACUGCCUCUCUGGACUCCUCGUCACUCAGCAGGGCAUCUCUGAGAGAAAUGCC [A78G U108C]	1.64
UACGUAGGUGGUUUUCCCCUGAUAGUGCUAAGGGGGCCUGGAAGUUUGGACUGGGCAGAGCUCGACACAGCGUGGCAAAGUGGCUGUGGCUAGACUGCCUCUCUGGAUUCCUCGUCACUCAGCAGGGCAUCUCUGAGAGAAAUACC [A64G G144A]	0.21
UACGUAGGUGGUUUUCCCUUGAUAGUGCUAAGGGGGCCUGGAAGUUUGGACUGGGCAGAGCUCAACACAGCGUGGCAAAGUGGCUGUGACUAGACUGCCUCUCUGGAUUCCUCGUCACUCAGCAGGGCAUCUCUGAGAGAAAUGCC [C19U G89A]	0.11
UACCUAGGUGGUUUUCCCCUGAUAGUGCUAAGGGGGCCUGGAAGUUUGGACUGGGCAGAGCUCAACACAGCGUGGCAAAGUGGCUGUGGCUAGACUGCCUCUCUGGAUUCCACGUCACUCAGCAGGGCAUCUCUGAGAGAAAUGCC [G4C U112A]	0.75

Variant	self-cleavage
UACGUAGGUGGUUUUCCCCUGAUAGUGCUAAGGGGGCCUGGAAGUUUGGACUGGGCAGAGCUCAACACAGCGUGGCAAAGUGGCUGUGGCUUGACUGCCUCUCUGGAUUCCUCGUCACUCAGCUGGGCAUCUCUGAGAGAAAUGCC [A92U A124U]	1.2
UACGUAGGUGGUUUUCCCCUGAUAGUGCUAAGGGGGCCUGGAAGUUUGGACCGGGCAGAGCUCAACACAGCGUGGCAAAGUGGCUGUGGCUAGACUGCCUCUCUGGUUUCCUCGUCACUCAGCAGGGCAUCUCUGAGAGAAAUGCC [U52C A107U]	1.63
UACGUAGGUGGUUUUCCCCUGAUAGUGCUAAGGGGGCCUGUAAGUUUGGACUGGGCAGAGCACAACACAGCGUGGCAAAGUGGCUGUGGCUAGACUGCCUCUCUGGAUUCCUCGUCACUCAGCAGGGCAUCUCUGAGAGAAAUGCC [G41U U62A]	0.04
UACGUAGGUGGUUUUCCCCUGGUAGUGCUAAGGGGGCCUGGAAGUCUGGACUGGGCAGAGCUCAACACAGCGUGGCAAAGUGGCUGUGGCUAGACUGCCUCUCUGGAUUCCUCGUCACUCAGCAGGGCAUCUCUGAGAGAAAUGCC [A22G U46C]	1.04
UACGUAGGUGGUUUUCCCCUGAUAGUGCUAAGUGGGCCUGGAAGUUUGGACUGGGCAGAGCUCAACACAGCGUGGCAAAGUGGCUGUGGCUAGACUGCCUCUCUGGAUUCCUCGUCACUCAGCAGGGCAUCUCAGAGAGAAAUGCC [G33U U134A]	1.24
UACGUAGGUGGUUUUCCCCUGAUAGUGCUAAGGGGGCCUGGAAGUUUGGACUGGGCAGAGCUCAACACAGCGUGGCAAAGUGGCUGUGGCUAGACUGCCUCUCUGGAUUCCUCGUCAAUCAGCAGGGCAUCUCUGAGUGAAAUGCC [C118A A138U]	1.47
UACGUAGGUGGUUUUCCCCUGAUAGUGCUAAGGGGGCCUGGGAGUUUGGACUGGGCAGAGCUCAACACAGCGUGGCAAAGUGGCUGUGGCUAGACUGCCUCUCUGGAUUCCUCGUCACUCAGCAGGGCAUCUCUGUGAGAAAUGCC [A42G A136U]	1.4
UACGUAGGUGGUUUUCCCCUGAUAGUGCUAAGGGGGCCUGGAAGUUUGGACUGGGCAGGGCUCAACACAGCGUGGCAAAGUGGCUGUGGCUAGACUGCCUCUCUGGAUUCCUCGUCACUCAGCAGGGCAUCUCUGAGAGGAAUGCC [A59G A140G]	0.09
CACGUAGGUGGUUUCCCCCUGAUAGUGCUAAGGGGGCCUGGAAGUUUGGACUGGGCAGAGCUCAACACAGCGUGGCAAAGUGGCUGUGGCUAGACUGCCUCUCUGGAUUCCUCGUCACUCAGCAGGGCAUCUCUGAGAGAAAUGCC [U1C U15C]	0.92
UACGUAGGUGGUUUUCCCCUGAUAGUGCUAAGGGGGCCUGGAAGUUUGGACUGGGCAGAGCUCAACACAGGGUGGCAAAGUGGCUGUGGCUAGACUGCCUCUCUGGAUUCCCCGUCACUCAGCAGGGCAUCUCUGAGAGAAAUGCC [C71G U112C]	0.37
UACGUAGGUGGUUUUCCCCUGAUAGUGCUAAGGGGGCCUGGAAGUUUGGACUGGGCAGAGCCCAACACAGCGUGGCAAAGUGGCUGUGGCUAGACUGCCUCUCUGGAUUCCUCGUCACUCAGCAGGGCAUCUCUGCGAGAAAUGCC [U62C A136C]	0.1
UACGUAGGUGGUUUUCCCCAGAUAGUGCUAAGGGGGCCUGGAUGUUUGGACUGGGCAGAGCUCAACACAGCGUGGCAAAGUGGCUGUGGCUAGACUGCCUCUCUGGAUUCCUCGUCACUCAGCAGGGCAUCUCUGAGAGAAAUGCC [U20A A43U]	1.46
UACGUAGGUGGUUUUCCCCAGAUAGUGCUAAGGGGGCCUGGAAGUUUGGACUGGGCAGAGCUCAACACAGCGUGGCCAAGUGGCUGUGGCUAGACUGCCUCUCUGGAUUCCUCGUCACUCAGCAGGGCAUCUCUGAGAGAAAUGCC [U20A A77C]	1.75
UACGUAGGUGGUUUUCCCCUGAUAGUGCAAAGGGGGCCUGGAAGUUUGGACUGGGCAGAGCUCAACACAGCGUGGCAAAGUGGCUGGGGCUAGACUGCCUCUCUGGAUUCCUCGUCACUCAGCAGGGCAUCUCUGAGAGAAAUGCC [U29A U87G]	0.12
UACGUAGGUGGUUUUCCCCUGAUAGUGCUAAGGGGGCCUGGAAGUUUGGACUGGGCAGAGCUCAACACAGCGUGGCAAGGCGGCUGUGGCUAGACUGCCUCUCUGGAUUCCUCGUCACUCAGCAGGGCAUCUCUGAGAGAAAUGCC [A79G U81C]	0.27
UACGUAGGUGGUUUUCCCCUGAUAGUGCUAAGGGGGCCAGGAAGUUUGGACUGGGCAGUGCUCAACACAGCGUGGCAAAGUGGCUGUGGCUAGACUGCCUCUCUGGAUUCCUCGUCACUCAGCAGGGCAUCUCUGAGAGAAAUGCC [U39A A59U]	1.19
UACGUAGGUGGUUUUCCCCUGAUAGUGCUAAGGGGGCCUGGAAGUUGGGACUGGGCAGAGCUCAACACAGCGUGGCAAAGUGGCUGUGGCUAGACUGCCUCUCUGGAUUCUUCGUCACUCAGCAGGGCAUCUCUGAGAGAAAUGCC [U47G C111U]	1.62
UACGUAGGUGGUUUUCCCCUGAUAGUGCUAAGGGGGCCUGGAAGUUUGGACUGGGCAGAGCUCAACACAGCGUGGCAAAGUGGCUGUGGCUUGACUGCCUCUCUGGAUUCCUCGUCACUCAGCAGGGCAUCUCUGAGAGAGAUGCC [A92U A141G]	0.96
UACGUAGGUGGUUUUCCCCUGAUAGUGCUAAGGGGGCCUGGAAGUUUGGACUGGGCAGAGCUCAACACAGCGUGGCAAAGUGGCUGAGGCUAGACUGCCUCUCUGGAUUCCUCGUCACUCAGCAGGUCAUCUCUGAGAGAAAUGCC [U87A G127U]	0.06
